Measurements as given in publication PMC10127185, “Low complexity domains of the nucleocapsid protein of SARS-CoV-2 form amyloid fibrils” (Nature Communications, 2023).

Experiments:
[1] = molecular target: the molecule itself; assay: crystal structure; GQTVTK 68 mg/mL in water, hanging drop, 20 °C, 2.0 M (NH4)2SO4, 0.1 M sodium HEPES pH 7.5, 2% v/v PEG 400; 1.10 Å
[2] = molecular target: the molecule itself; assay: crystal structure; GSQASS 100 mg/mL in water, hanging drop, 20 °C, 1.0 M Na,K tartrate, 0.2 M Li2SO4, Tris pH 7.0; needle crystals; 1.30 Å
[3] = molecular target: the molecule itself; assay: crystal structure; AALALL form 1: batch, peptide in water, acetonitrile and TFA about 45:45:10; needle crystals; 1.12 Å

B1: NCAP steric zipper segment 243GQTVTK248 (peptide)
peptide: GQTVTK
notes: Nucleocapsid protein (NCAP) of SARS-CoV-2, residues 243-248, within the central LCD
binding result [1]: binds

B2: NCAP steric zipper segment 179GSQASS184 (peptide)
peptide: GSQASS
notes: Nucleocapsid protein (NCAP) of SARS-CoV-2, residues 179-184, within the central LCD; non-phosphorylated peptide
binding result [2]: binds

B3: NCAP steric zipper segment 217AALALL222 (peptide)
peptide: AALALL
notes: Nucleocapsid protein (NCAP) of SARS-CoV-2, residues 217-222, within the central LCD; also called H-AALALL-OH
binding result [3]: binds
